Positions count from the first letter of the chain named. In names and notes the source's numbering stands.

B1: extracellular domain of ZIP4 from Pteropus alecto (black fruit bat), wild type (domain or fragment)
chain: SGQGALDRVALGGLLNTLAARVHCTSGPCGKCLSVDDLLALGRPEEPGHLARLSAAAALYLSDPEGTCEDIRAGRWASRADHLLALLEGPKALAPGLSRLLQRIQAQTTGQPSAGEACVDPPQLLREAGVAGAPGSPGPVLATLLEHVGRGSCFHTLPTPQYFVDFVFQQSHGNTPNISVAELAALMQRLGVGGVTETHSDHHHQEKRVNRQGPTPLTAPNSSSDTWDTVCLSARDVMAVYGLSEQTGVTPEAWAQLSPALLQQQLSGACSPQPSHPAQNQLSQAEK
B2: pZIP4-ECD R87C variant (domain or fragment)
chain: B1 chain with R52C
B3: pZIP4-ECD Q299H variant (domain or fragment)
chain: B1 chain with Q264H
B4: pZIP4-ECD C64R variant (domain or fragment)
chain: B1 chain with C29R
B5: pZIP4-ECD A91T variant (domain or fragment)
chain: B1 chain with A56T
B6: pZIP4-ECD P193L variant (domain or fragment)
chain: B1 chain with P158L

The data set concerns the molecule itself. The data set can be described thus: SEC. Background: Size exclusion chromatography separates by hydrodynamic size, large species first.
In the case of B1, the “stoichiometry N” value was 2.

B2: the “stoichiometry N” value was found to be 2.

B3: the “stoichiometry N” value was found to be 2.

Regarding B4, the “stoichiometry N” value is 2.

As to B5, the “stoichiometry N” value was 2.

As for B6, the “stoichiometry N” value was 2.

What is called stoichiometry N is a count of units in the complex or per binding partner.

The record behind these values is article doi:10.1101/2020.08.16.253294 (bioRxiv, 2020).
